The record followed here is patent US20220395579A1 (Daiichi Sankyo, published 2022).

Positions count from the first letter of the chain named.

One assay concerns the target T1, human CLDN9 (human, UniProt O95484 1-217).
T1 construct: It was expressed on 293T cells from human CLDN9/pCMV6-Entry bought from OriGene; also called claudin-9
T1 sequence: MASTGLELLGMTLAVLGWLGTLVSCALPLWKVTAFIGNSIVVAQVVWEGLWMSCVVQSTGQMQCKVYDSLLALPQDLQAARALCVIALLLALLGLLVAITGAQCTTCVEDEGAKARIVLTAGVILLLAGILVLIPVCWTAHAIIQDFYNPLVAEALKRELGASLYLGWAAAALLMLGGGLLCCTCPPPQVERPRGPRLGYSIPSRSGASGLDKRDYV
As to the kind of experiment: flow cytometry on 293T cells transiently transfected with human CLDN9. As for the experimental part:
(§1) The binding activity of the humanized anti-CLDN6 antibody produced in Example 136 to human CLDN6 and its family molecules, CLDN3, CLDN4, and CLDN9, was evaluated by using a flow cytometry method. […] The cells were washed with Dulbecco's phosphate buffered saline (Sigma-Aldrich Co. LLC) containing 5% fetal bovine serum (Hyclone) (hereinafter, referred to as 5% FBS-containing PBS), and FITC AffiniPureF (ab′)₂ Fragment Goat Anti-Human IgG (H+L) (Jackson ImmunoResearch Laboratories Inc.) 150-fold diluted with 5% FBS-containing PBS was then added thereto, and the cells were suspended and left to stand at 4° C. for 30 minutes. After washing with 5% FBS-containing PBS, detection was carried out by using a flow cytometer (FC500; Beckman Coulter, Inc.). Data analysis was carried out by using FlowJo (Tree Star, Inc.), and mean fluorescence intensity (MFI) of FITC, which indicates the amount of the binding antibody, was calculated. […] In each graph in FIG. 42, the abscissa represents antibody concentrations and the ordinate represents MFI.

Assay [1] has as its target T2, human CLDN6 (human, UniProt P56747 1-220).
T2 construct: In the flow cytometry it was expressed on 293T cells from human CLDN6/pCMV-Entry bought from OriGene; It was also expressed on CHO-K1 cells by cDNA transfection, and the endogenous protein was immunoprecipitated from NTERA-2 cell lysate; also called claudin-6; hCLDN6
T2 sequence: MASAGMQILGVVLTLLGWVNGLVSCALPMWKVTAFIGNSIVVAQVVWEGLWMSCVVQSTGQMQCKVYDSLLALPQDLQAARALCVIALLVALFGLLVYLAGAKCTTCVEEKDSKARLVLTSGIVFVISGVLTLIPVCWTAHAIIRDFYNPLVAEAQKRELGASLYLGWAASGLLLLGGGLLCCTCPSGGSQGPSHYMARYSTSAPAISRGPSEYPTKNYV
The experiment in a line: immunoprecipitation from NTERA-2 cell lysate with the antibody, SDS-PAGE, mass spectrometry of the 18 kDa band.
Procedure: 2×10⁷ NTERA-2 cells were collected and washed twice with PBS. The cells were collected by using a cell scraper, and centrifuged at 1500 rpm for 5 minutes. After the supernatant was removed, the cells were resuspended in 2 mL of the lysis buffer, and treated at 4° C. for 30 minutes. The resultant was centrifuged (13000 rpm, 20 minutes, 4° C.) to prepare a cell lysate. Protein G Sepharose/lysis buffer (50% slurry; 180 μL) was added to the cell lysate, and the resultant was rotated at 4° C. for 30 minutes and then centrifuged at 4° C. for 1 hour, and the supernatant was collected. […] The Protein G Sepharose was washed six times with the lysis buffer (1 mL), and then resuspended in 1×SDS sample buffer. After the suspension was treated at 100° C. for 5 minutes, the solution was collected as a sample for SDS-PAGE. SDS-PAGE was carried out in the same manner as in 2-2), and the electrophoresis gel was stained with CBB. The part corresponding to 18 kDa was cut out of the electrophoresis gel, and subjected to mass spectrometry.

The target of another assay is T3, human CLDN3 (human, UniProt O15551 1-220).
T3 construct: whole, on cells; Transfection was confirmed with an anti-FLAG antibody, so the construct may carry a tag
T3 sequence (looked up): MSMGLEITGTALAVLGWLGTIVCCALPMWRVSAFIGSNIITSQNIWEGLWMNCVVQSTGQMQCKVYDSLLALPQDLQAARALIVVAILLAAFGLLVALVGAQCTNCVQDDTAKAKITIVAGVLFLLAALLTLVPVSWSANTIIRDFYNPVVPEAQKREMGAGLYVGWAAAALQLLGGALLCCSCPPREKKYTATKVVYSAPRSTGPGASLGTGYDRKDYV
As to the kind of experiment: flow cytometry on 293T cells transiently transfected with human CLDN3.

The target in another assay is T4, human CLDN4 (human, UniProt O14493 1-209).
T4 construct: whole, on cells; Transfection was confirmed with an anti-FLAG antibody, so the construct may carry a tag
T4 sequence (looked up): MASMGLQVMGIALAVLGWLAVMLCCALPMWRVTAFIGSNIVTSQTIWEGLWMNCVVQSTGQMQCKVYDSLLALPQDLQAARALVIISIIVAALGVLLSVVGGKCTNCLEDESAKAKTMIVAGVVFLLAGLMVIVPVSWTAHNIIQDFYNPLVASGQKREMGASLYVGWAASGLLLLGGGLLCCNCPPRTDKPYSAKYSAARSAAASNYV
The experiment in a line: flow cytometry on 293T cells transiently transfected with human CLDN4.

For assay [2], the target named is T2, human CLDN6. As to the kind of experiment: FACS on CHO-K1 cells transfected with human claudin-6 cDNA.
The target in assay [3] is T2, human CLDN6. As to the kind of experiment: flow cytometry on 293T cells transiently transfected with human CLDN6. As for the experimental part: as §1

B1: mouse anti-CLDN6 antibody B1 (antibody, V domains shown)
VH: EVQLQQSGPELVKPGASVKISCKTSGYTFTEYTMHWVQQSHGKSLEWIGGVNPNSGDTSYNQKFKGKATLTVDKSSSTAYMELRSLTSEDSAVYYCARPGGYDVGYYAMDYWGQGTSVTVSS
VL: DIQMTQTASSLSASLGDRVTISCRASQDINNYLNWYQQKPDGTVKLLIYFTSRLHSGVPSRFSGSGSGTHYSLTITNLEQEDIATYFCQQGYPLPWTFGGGTKLEIK
notes: Mouse monoclonal antibody purified from the culture supernatant of hybridoma 218B1; a mouse IgG1 was used as the control; also called B1 antibody; 218B1
In the case of B1, the binding result in the assay with human CLDN9 was “binds”; with human CLDN6 [1], “binds”; in the assay with human CLDN3, “no binding”; with human CLDN4, “no binding”.

B2: mouse anti-CLDN6 antibody C7 (antibody, V domains shown)
VH: B1 VH
VL: B1 VL with F50S, N77H
notes: Mouse monoclonal antibody purified from the culture supernatant of hybridoma 218C7; also called C7 antibody; 218C7
Regarding B2, the binding result in the assay with human CLDN9 is reported as “binds”; with human CLDN3, “no binding”; in the assay with human CLDN4, “no binding”; in the assay with human CLDN6 [2], “binds”.

B3: humanized anti-CLDN6 antibody H1L3 (antibody, human IgG1, kappa, L234A L235A, V domains shown)
VH: QVQLVQSGAEVKKPGASVKVSCKASGYTFTEYTMHWVRQAPGQGLEWMGGVNPNSGDTSYAQKFQGRVTITADTSTSTAYMELSSLRSEDTAVYYCARPGGYDVGYYAMDYWGQGTLVTVSS
VL: DIQMTQSPSSLSASVGDRVTITCRASQDINNYLNWYQQKPGGAVKLLIYFTSRLHSGVPSRFSGSGSGTDYTLTISSLQPEDFATYYCQQGYPLPWTFGGGTKVEIKR
notes: Heavy chain hH1 with light chain hL3; Human IgG1 LALA constant region and human kappa light chain; also called H1L3 antibody
On to B3, for which the binding result with human CLDN9 is “binds”; in the assay with human CLDN3 it was “no binding (tested: 100 nM)”; with human CLDN6 [3], “binds”; with human CLDN4, “no binding (tested: 100 nM)”.

B4: humanized anti-CLDN6 antibody H1L1 (antibody, human IgG1, kappa, L234A L235A, V domains shown)
VH: B3 VH
VL: B3 VL with G42K, V44P, G100Q
notes: Heavy chain hH1 with light chain hL1; Human IgG1 LALA constant region and human kappa light chain; also called H1L1 antibody
Turning to B4, the binding result is recorded as “binds” with human CLDN9, “no binding (tested: 100 nM)” with human CLDN3, “binds” with human CLDN6 [3] and “no binding (tested: 100 nM)” with human CLDN4.

B5: humanized anti-CLDN6 antibody H3L3 (antibody, human IgG1, kappa, L234A L235A, V domains shown)
VH: B3 VH with Q1E, A24T, I70L, A72V, T74K
VL: B3 VL
notes: Heavy chain hH3 with light chain hL3; Human IgG1 LALA constant region and human kappa light chain; also called H3L3 antibody
As to B5, the binding result with human CLDN9 is on record as “binds”; with human CLDN3 it was “no binding (tested: 100 nM)”; in the assay with human CLDN6 [3] it was “binds”; with human CLDN4, “no binding (tested: 100 nM)”.

B6: humanized anti-CLDN6 antibody H2L4 (antibody, human IgG1, kappa, L234A L235A, V domains shown)
VH: B3 VH with Q1E, A24T, Q43K, G44S
VL: B3 VL with Y92N, P93T
notes: Human IgG1 LALA constant region and human kappa light chain; also called H2L4 antibody
As for B6, the binding result is “binds” with human CLDN9, “no binding (tested: 100 nM)” in the assay with human CLDN3, “binds” with human CLDN6 [3] and “no binding (tested: 100 nM)” in the assay with human CLDN4.

B7: humanized anti-CLDN6 antibody H2L2 (antibody, human IgG1, kappa, L234A L235A, V domains shown)
VH: B3 VH with Q1E, A24T, Q43K, G44S
VL: B3 VL with G42K, D70H, G100Q
notes: Heavy chain hH2 with light chain hL2; Human IgG1 LALA constant region and human kappa light chain; also called H2L2 antibody
B7: the binding result with human CLDN9 is “binds”; with human CLDN3 it was “no binding (tested: 100 nM)”; in the assay with human CLDN6 [3], “binds”; with human CLDN4, “no binding (tested: 100 nM)”.
